Laboratory results from publication PMC2254190, “T Cell Receptor Engagement Triggers Its CD3ε and CD3ζ Subunits to Adopt a Compact, Locked Conformation” (PLoS ONE, 2008).

Molecular target: SH3.1 domain of Nck (NMR work, in preparation) (UniProt P16333 2-61)
Experiment: not stated; affinity told in the discussion without method

B1: CD3ε polypeptide (NMR work, in preparation) (domain or fragment)
chain: KNRKAKAKPVTRGAGAGGRQRGQNKERPPPVPNPDYEPIRKGQRDLYSGLNQRRI
modifications: The construct is not described (unpublished NMR work, 'in preparation'). The whole cytoplasmic tail, by UniProt topology, is used because it holds the PPS with its upstream and downstream charged …
Work on B1 yielded a Kd of ~100 nM.
